According to the nanobody polyreactivity screen of Harvey et al. (2022):

Assay: yeast display, Sf9 membrane polyspecificity reagent, FACS + sequencing; frameworks hold sequencing errors
How it was run: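 Sorting gates, low and high (top ~1%), were placed on anti-HA fluorescence to track expression and on streptavidin fluorescence to track reagent binding. A clone's polyreactivity label is taken from the gate it came out of. The reagent was 10% biotinylated, detergent-solubilized Sf9 membrane, applied for 1 hour at 4 °C to galactose-induced yeast display cells.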

| Sequence | polyreactivity (PSR sort gate) |
| --- | --- |
| QVQLVESGGGLVQAGGSLRISCAASAHIFDYNAMGWYRQAPGKERELVAAITSGGTTTYADSVKGRFTISRDNAKNTVDLQMNSLKPEDTAVYYCNTYGQTDTYWRYYYWGQGTQVTVSS | high polyreactivity |
| QVQLVESGGGLVQAGGSLRISCAASGFIFPFYAMGWYRQAPVKERELVATITSGGSTNYADSVKGRFTISRDNAKNTVYLQMNSQKPEDTAVYYCAAVIVPYGPSTFRVVGLDYWGQGTQVTVSS | low polyreactivity |
| QVQLVESGGGLVQAGGSLRISCAASGFIFRQYAMGWYRQAPGKERELVAAISRSGGSTYYADSVKGRFTISRDNAKNTVYLQMNSLKPEDTAVYYCNAVPRKYTDEFDYWGQGTQVTVSS | high polyreactivity |
| QVQLVESGGGLVQAGGSLRISCAASGFSFVWYAMGWYRQAPGKERELVAAINWSGGHTYYADSVKGRFTISRDNAKNTVYLQMNSQKPVETAVYYCNADSLWYWFYPYNYWGQGTQVTVSS | low polyreactivity |
| QVQLVESGGGLVQAGGSLRISCAASGFTFHSYAMGWYIQAPGKERELVDAISYSGGSTYYADSVKGRFTISRDNAKNTVYLQMNSLKPEDSAVYYCAVLRYIYGYANDYWGQGTQLTVSS | low polyreactivity |
| QVQLVESGGGLVQAGGSLRISCAASGFTFRANAMGWYRQAPGKEREVVAAISQSGGRTYYADSVKARFTISRDNAKNTVYLQMNSLKPEDTAVYDCAAPDSAKELYYRMDYWGQGTQVTVSS | high polyreactivity |
| QVQLVESGGGLVQAGGSLRISCAASGFTFSSYAMGRSRPAPGKERELVAGITIDGNTYYADSVKGRFTISRDNAKNTVYLQMNSLKPEDTAVYYCAAVAYYYGYDYWGQGTQVTVSS | low polyreactivity |
| QVQLVESGGGLVQAGGSLRISCAASGFTFSYNTMGWYRQAPGKERELVAAITGDVSTNYADSVKGRFTISRDNAKNTVYLQMNSLKPEDTAVYYCAARPNFPGYEDLSVDFEYWGQGTQGTVSS | low polyreactivity |
| QVQLVESGGGLVQAGGSLRISCAASGFTFVINEMGWYRPAPGKERELVADITSGGDTYYADSVKGRFTISRDNAKNTVYLQMNSLKPEDTAVYYCAAYIYPDWIYLLYGYWGQGTQVTVSS | low polyreactivity |
| QVQLVESGGGLVQAGGSLRISCAASGFTFYTNAMGWYIQAPGKERELVAAISSGGSTNYADSVKGRFTISRDNAKNTVYLQMNSLQPEDSAVYYCAARRGYWGQGTQVTVSS | high polyreactivity |
| QVQLVESGGGLVQAGGSLRISCAASGGIFWTYAMGWYRQEPGKERELVAAISYSDGITYYADSVKGRFTISRDNAKNTVYFQMNSLKPEDTAVYYCAADPELAVPMYYWGQGTQVTVSS | low polyreactivity |
| QVQLVESGGGLVQAGGSLRISCAASGINFVTYAMGWYRKAPGKEREFVASINWITGNTYYADSVKGRFTISRDNAKNTVYLQMNSLKPEDTAVYYCATVDWSLYLGTPPSYYWGQGTQVTVSS | low polyreactivity |
| QVQLVESGGGLVQAGGSLRISCAASGITFAWYAMGWYRQAPGKERELVATISAGGAITYYADSVKGRFTISRDNAKNTVYLQMNSLKPEDTAVYYCNAVTYGPYGWGQGTQVTVSS | high polyreactivity |
| QVQLVESGGGLVQAGGSLRISCAASGITFPVYTMGWYRQAPGKERELVAAITSSGGSTYYADSVKGRFTISRDNAKNTVYLQMNSLKPEDTAVYYCAARDYGRHHTYGYWGQGTQVTVSS | high polyreactivity |
| QVQLVESGGGLVQAGGSLRISCAASGITFVPNAMGWYRQAPGKERELVAAITGNGGRTYYADSVKGRFTISRDNAKNTVYLQMNSLKPEDTAVYYCNARKLYWAYTLRKYDYWGQGTQVTVSS | high polyreactivity |
| QVQLVESGGGLVQAGGSLRISCAASGITLINDAMGWYRQAPGKERELVAAITYRGVSTYYADSVKGRFTISRDNAKNTVYLQMKSLKPEDTAVYYCAAGYYWQYTSSSAQYSYDYWGQGTQVTVSS | low polyreactivity |

| Sequence | polyreactivity (PSR sort gate) |
| --- | --- |
| QVQLVESGGGLVQAGGSLRISCAASGLIFAIYAMGWYRQAPGKERELVAAIRWSGASTYADSVKGRFTISRDNAKNTVYLQMNSLKAEDTAVYYCAADDLLDYDNWGQGTQVTVSS | low polyreactivity |
| QVQLVESGGGLVQAGGSLRISCAASGLIFYGYVMGWYRQAPGKEREFVAAITLSGGRTYYADSVKGRFTISRDNAKNTVYLQMNSLKPEDTAVYYCAARGPFRPYGAVGRQYDYWGQGTQVTVSS | high polyreactivity |
| QVQLVESGGGLVQAGGSLRISCAASGLTFADNAMGWYRQAPGKERELVAAISRSGSRTYYADSVKGRFTISRDNAKNTVYLQMNSLKPEDTAVYYCNAVWWYYRVFDYWGQCTQVTVSS | high polyreactivity |
| QVQLVESGGGLVQAGGSLRISCAASGLTFTDYAIGWYRQAPGKERELVAGIWDGGSTYYADSVKGRFTISRDNAKNTVYLQMNSLKAEDTAVYSCAVRTSRLLREFGYSYWGQGTQVTVSS | high polyreactivity |
| QVQLVESGGGLVQAGGSLRISCAASGLTFTSNVMGWYRQAPGKERELVAAISSGGSTYYADSVKGRFTISRDNAKNTVYLQMNSLKPEDTAVYYCNTKLWGQYDYWGQGTQVTVSS | low polyreactivity |
| QVQLVESGGGLVQAGGSLRISCAASGLTFYYNAMGWYRQAPGKDRELVATITWRGGRTYYADSVKGRFTISRDNAKNTVYLQMNCLKPEDTAVYYCAAGYFSQRLYLWFGYWGQGTQVTVSS | high polyreactivity |
| QVQLVESGGGLVQAGGSLRISCAASGNIFYRNGMGWYRQAPGKEREFVAAISRRGGSTYYADSVKGRFTISRDNAKNTVYLQMNSLKTEDTAVYYCATRYWPTNKGEYWGQGTQLTVSS | high polyreactivity |
| QVQLVESGGGLVQAGGSLRISCAASGNTFEHNAMGWYRQAPGKERELVAVISKSGGRTYYADSVKGRFTISRDNAKNTVYLQMNSLKPEDTAVYYCAKRSPFITWNGISYVEYDYWGPGTQVTVSS | low polyreactivity |
| QVQLVESGGGLVQAGGSLRISCAASGNTFGDYAMGWYRQAPGKERELVAAISRSGGSTSYADSVKGRFTISRDNAKNTVYLQMNSLKPEDTAVYYCAGYWQRFGYDYWGQGTLVTVSS | low polyreactivity |
| QVQLVESGGGLVQAGGSLRISCAASGRICIYYTMGWYRQAPGKDREFVAAITYSGGSTRYADSVKGRFTISRDNAKNTVYFQMNSLKTEVTAVYYCAAKFSVRRGFDYWGQGTQVTVSS | low polyreactivity |
| QVQLVESGGGLVQAGGSLRISCAASGRIFDYYAMGWYRQAPGKERELVAAISYSGGSTHYADSVKGRFTISRDNAKNTVYLQMNSLKPEDTAVYYCAGWAWSGVEYDYWGQGTQVTVSS | low polyreactivity |
| QVQLVESGGGLVQAGGSLRISCAASGRIFFTYVKGWYRQAPGKERELVATIRVSGGSTYYADSVKGRYTISRDNAKKTVYLQMNSLKPEDTAVYYCAASGAWWSLHYAGDFWGQGTQVTVSS | high polyreactivity |
| QVQLVESGGGLVQAGGSLRISCAASGRIFGYYGMGWSRQAPGKERELVAAITSNAGRTYYADSVKGRFTISRDNSKNTVYLQMNSLKPEDTAVYYCAATSKGSYGRQGYDYWGQGTQVTVSS | low polyreactivity |
| QVQLVESGGGLVQAGGSLRISCAASGRIFIYNAMGWYRQAPGKERELVAAINRSGVSTHYADSVKGRFTISRDNAKNTVYLQMNSLIPEDTAVYYCARTVYGARSYDYWGQGTQVTVSS | low polyreactivity |
| QVQLVESGGGLVQAGGSLRISCAASGRIFLRNDMGWYRQAPGKERELVAGISSDGSTYYADSVKGRFTISRDNAKNTVYLQMNSLKPEDTAVYYCAAERWGNPTDYQFWRPYDYWGQGTQVTVSS | low polyreactivity |
| QVQLVESGGGLVQAGGSLRISCAASGRIFQHYAMGWYRQAPGKERELVAAISWRGGSTYYADSVKGRFTISRDNAKNTVFLLMNSLKPEDTAVYYCAAGYRGRIPGFDYWGQGTQVTVSS | high polyreactivity |
